From US20150147274A1 (CANCER RESEARCH TECHNOLOGY, published 2015)

B1: 112_H2 (scFv)
scFv: QMQLVQSGAEVKKPGAPVKVSCKVSGYTFTDYYMHWVQQAPGKGLEWMGLVDPEDGETIYAEKFQGRVTITADTSTDTAYMELSSLRSEDTAVYYCATDATTPYWGMQVWGQGTLVTVSSLEGGGGSGGGGSGGGASDIQMTQSPSSLSASVGDRVTITCQASQDISNYLNWYQQKPGRAPKVLIYDASNLETGVPSRFSGSGSGTEFTLTISNLRPDDFATYYCQQGDSFPLTFGGGTKVEIK
notes: not shown: 6xHis/tri-FLAG tags
B2: 107_B8 (scFv)
scFv: QMQLVQSGAEVKKPGAPVKVSCKVSGYTFTDYYMHWVQQAPGKGLEWMGLVDPEDGETIYAEKFQGRVTITADTSTDTAYMELSSLRSEDTAVYYCATDATTPYWGMAEWGQGTLVTVSSLEGGGGSGGGGSGGGASDIQMTQSPSSLSASVGDRVTITCQASQDISNYLNWYQQKPGRAPKVLIYDASNLETGVPSRFSGSGSGTEFTLTISNLRPDDFATYYCQQGDSFPLTFGGGTKVEIK
notes: as for B1
B3: 107_A11 (scFv)
scFv: QMQLVQSGAEVKKPGAPVKVSCKVSGYTFTDYYMHWVQQAPGKGLEWMGLVDPEDGETIYAEKFQGRVTITADTSTDTAYMELSSLRSEDTAVYYCATDATTPYWGMAWWGQGTLVTVSSLEGGGGSGGGGSGGGASDIQMTQSPSSLSASVGDRVTITCQASQDISNYLNWYQQKPGRAPKVLIYDASNLETGVPSRFSGSGSGTEFTLTISNLRPDDFATYYCQQGDSFPLTFGGGTKVEIK
notes: as for B1
B4: 107_A3 (scFv)
scFv: QMQLVQSGAEVKKPGAPVKVSCKVSGYTFTDYYMHWVQQAPGKGLEWMGLVDPEDGETIYAEKFQGRVTITADTSTDTAYMELSSLRSEDTAVYYCATDATTAYWGMQKWGQGTLVTVSSLEGGGGSGGGGSGGGASDIQMTQSPSSLSASVGDRVTITCQASQDISNYLNWYQQKPGRAPKVLIYDASNLETGVPSRFSGSGSGTEFTLTISNLRPDDFATYYCQQGDSFPLTFGGGTKVEIK
notes: as for B1
B5: 107_A9 (scFv)
scFv: QMQLVQSGAEVKKPGAPVKVSCKVSGYTFTDYYMHWVQQAPGKGLEWMGLVDPEDGETIYAEKFQGRVTITADTSTDTAYMELSSLRSEDTAVYYCATDATTPYWGMMTWGQGTLVTVSSLEGGGGSGGGGSGGGASDIQMTQSPSSLSASVGDRVTITCQASQDISNYLNWYQQKPGRAPKVLIYDASNLETGVPSRFSGSGSGTEFTLTISNLRPDDFATYYCQQGDSFPLTFGGGTKVEIK
notes: as for B1
B6: 107_B1 (scFv)
scFv: QMQLVQSGAEVKKPGAPVKVSCKVSGYTFTDYYMHWVQQAPGKGLEWMGLVDPEDGETIYAEKFQGRVTITADTSTDTAYMELSSLRSEDTAVYYCATDATHIYWNMDIWGQGTLVTVSSLEGGGGSGGGGSGGGASDIQMTQSPSSLSASVGDRVTITCQASQDISNYLNWYQQKPGRAPKVLIYDASNLETGVPSRFSGSGSGTEFTLTISNLRPDDFATYYCQQGDSFPLTFGGGTKVEIK
notes: as for B1
B7: 107_B4 (scFv)
scFv: QMQLVQSGAEVKKPGAPVKVSCKVSGYTFTDYYMHWVQQAPGKGLEWMGLVDPEDGETIYAEKFQGRVTITADTSTDTAYMELSSLRSEDTAVYYCATDATTPYWFPNVWGQGTLVTVSSLEGGGGSGGGGSGGGASDIQMTQSPSSLSASVGDRVTITCQASQDISNYLNWYQQKPGRAPKVLIYDASNLETGVPSRFSGSGSGTEFTLTISNLRPDDFATYYCQQGDSFPLTFGGGTKVEIK
notes: as for B1
B8: 107_B6 (scFv)
scFv: QMQLVQSGAEVKKPGAPVKVSCKVSGYTFTDYYMHWVQQAPGKGLEWMGLVDPEDGETIYAEKFQGRVTITADTSTDTAYMELSSLRSEDTAVYYCATDATTPYWGMQKWGQGTLVTVSSLEGGGGSGGGGSGGGASDIQMTQSPSSLSASVGDRVTITCQASQDISNYLNWYQQKPGRAPKVLIYDASNLETGVPSRFSGSGSGTEFTLTISNLRPDDFATYYCQQGDSFPLTFGGGTKVEIK
notes: as for B1
B9: 107_A5 (scFv)
scFv: QMQLVQSGAEVKKPGAPVKVSCKVSGYTFTDYYMHWVQQAPGKGLEWMGLVDPEDGETIYAEKFQGRVTITADTSTDTAYMELSSLRSEDTAVYYCATDATTPYWGMSKWGQGTLVTVSSLEGGGGSGGGGSGGGASDIQMTQSPSSLSASVGDRVTITCQASQDISNYLNWYQQKPGRAPKVLIYDASNLETGVPSRFSGSGSGTEFTLTISNLRPDDFATYYCQQGDSFPLTFGGGTKVEIK
notes: as for B1
B10: 107_B7 (scFv)
scFv: QMQLVQSGAEVKKPGAPVKVSCKVSGYTFTDYYMHWVQQAPGKGLEWMGLVDPEDGETIYAEKFQGRVTITADTSTDTAYMELSSLRSEDTAVYYCATDATTPYWCMRAWGQGTLVTVSSLEGGGGSGGGGSGGGASDIQMTQSPSSLSASVGDRVTITCQASQDISNYLNWYQQKPGRAPKVLIYDASNLETGVPSRFSGSGSGTEFTLTISNLRPDDFATYYCQQGDSFPLTFGGGTKVEIK
notes: as for B1
B11: 107_A12 (scFv)
scFv: QMQLVQSGAEVKKPGAPVKVSCKVSGYTFTDYYMHWVQQAPGKGLEWMGLVDPEDGETIYAEKFQGRVTITADTSTDTAYMELSSLRSEDTAVYYCATDATTPYWWMAKWGQGTLVTVSSLEGGGGSGGGGSGGGASDIQMTQSPSSLSASVGDRVTITCQASQDISNYLNWYQQKPGRAPKVLIYDASNLETGVPSRFSGSGSGTEFTLTISNLRPDDFATYYCQQGDSFPLTFGGGTKVEIK
notes: as for B1
B12: 107_A6 (scFv)
scFv: QMQLVQSGAEVKKPGAPVKVSCKVSGYTFTDYYMHWVQQAPGKGLEWMGLVDPEDGETIYAEKFQGRVTITADTSTDTAYMELSSLRSEDTAVYYCATDATTPYWTPFVWGQGTLVTVSSLEGGGGSGGGGSGGGASDIQMTQSPSSLSASVGDRVTITCQASQDISNYLNWYQQKPGRAPKVLIYDASNLETGVPSRFSGSGSGTEFTLTISNLRPDDFATYYCQQGDSFPLTFGGGTKVEIK
notes: as for B1
B13: 107_B10 (scFv)
scFv: QMQLVQSGAEVKKPGAPVKVSCKVSGYTFTDYYMHWVQQAPGKGLEWMGLVDPEDGETIYAEKFQGRVTITADTSTDTAYMELSSLRSEDTAVYYCATDATTPYWGMRVWGQGTLVTVSSLEGGGGSGGGGSGGGASDIQMTQSPSSLSASVGDRVTITCQASQDISNYLNWYQQKPGRAPKVLIYDASNLETGVPSRFSGSGSGTEFTLTISNLRPDDFATYYCQQGDSFPLTFGGGTKVEIK
notes: as for B1
B14: 107_A2 (scFv)
scFv: QMQLVQSGAEVKKPGAPVKVSCKVSGYTFTDYYMHWVQQAPGKGLEWMGLVDPEDGETIYAEKFQGRVTITADTSTDTAYMELSSLRSEDTAVYYCATDATTPYWGMQSWGQGTLVTVSSLEGGGGSGGGGSGGGASDIQMTQSPSSLSASVGDRVTITCQASQDISNYLNWYQQKPGRAPKVLIYDASNLETGVPSRFSGSGSGTEFTLTISNLRPDDFATYYCQQGDSFPLTFGGGTKVEIK
notes: as for B1
B15: 107_A4 (scFv)
scFv: QMQLVQSGAEVKKPGAPVKVSCKVSGYTFTDYYMHWVQQAPGKGLEWMGLVDPEDGETIYAEKFQGRVTITADTSTDTAYMELSSLRSEDTAVYYCATDATTPYWFPYHWGQGTLVTVSSLEGGGGSGGGGSGGGASDIQMTQSPSSLSASVGDRVTITCQASQDISNYLNWYQQKPGRAPKVLIYDASNLETGVPSRFSGSGSGTEFTLTISNLRPDDFATYYCQQGDSFPLTFGGGTKVEIK
notes: as for B1
B16: 107_A10 (scFv)
scFv: QMQLVQSGAEVKKPGAPVKVSCKVSGYTFTDYYMHWVQQAPGKGLEWMGLVDPEDGETIYAEKFQGRVTITADTSTDTAYMELSSLRSEDTAVYYCATDATTPYWGMQEWGQGTLVTVSSLEGGGGSGGGGSGGGASDIQMTQSPSSLSASVGDRVTITCQASQDISNYLNWYQQKPGRAPKVLIYDASNLETGVPSRFSGSGSGTEFTLTISNLRPDDFATYYCQQGDSFPLTFGGGTKVEIK
notes: as for B1
B17: 107_B3 (scFv)
scFv: QMQLVQSGAEVKKPGAPVKVSCKVSGYTFTDYYMHWVQQAPGKGLEWMGLVDPEDGETIYAEKFQGRVTITADTSTDTAYMELSSLRSEDTAVYYCATDATTPYWGMKMWGQGTLVTVSSLEGGGGSGGGGSGGGASDIQMTQSPSSLSASVGDRVTITCQASQDISNYLNWYQQKPGRAPKVLIYDASNLETGVPSRFSGSGSGTEFTLTISNLRPDDFATYYCQQGDSFPLTFGGGTKVEIK
notes: as for B1
B18: 107_B5 (scFv)
scFv: QMQLVQSGAEVKKPGAPVKVSCKVSGYTFTDYYMHWVQQAPGKGLEWMGLVDPEDGETIYAEKFQGRVTITADTSTDTAYMELSSLRSEDTAVYYCATDATTPYWGMQIWGQGTLVTVSSLEGGGGSGGGGSGGGASDIQMTQSPSSLSASVGDRVTITCQASQDISNYLNWYQQKPGRAPKVLIYDASNLETGVPSRFSGSGSGTEFTLTISNLRPDDFATYYCQQGDSFPLTFGGGTKVEIK
notes: as for B1
B19: 107_B2 (scFv)
scFv: QMQLVQSGAEVKKPGAPVKVSCKVSGYTFTDYYMHWVQQAPGKGLEWMGLVDPEDGETIYAEKFQGRVTITADTSTDTAYMELSSLRSEDTAVYYCATDATTPYWGMQMWGQGTLVTVSSLEGGGGSGGGGSGGGASDIQMTQSPSSLSASVGDRVTITCQASQDISNYLNWYQQKPGRAPKVLIYDASNLETGVPSRFSGSGSGTEFTLTISNLRPDDFATYYCQQGDSFPLTFGGGTKVEIK
notes: as for B1
B20: 107_B11 (scFv)
scFv: QMQLVQSGAEVKKPGAPVKVSCKVSGYTFTDYYMHWVQQAPGKGLEWMGLVDPEDGETIYAEKFQGRVTITADTSTDTAYMELSSLRSEDTAVYYCATDATTPYWGMAMWGQGTLVTVSSLEGGGGSGGGGSGGGASDIQMTQSPSSLSASVGDRVTITCQASQDISNYLNWYQQKPGRAPKVLIYDASNLETGVPSRFSGSGSGTEFTLTISNLRPDDFATYYCQQGDSFPLTFGGGTKVEIK
notes: as for B1

The binders below were run against T1, MET928 (cMET protein derived from construct 25-928) (human, UniProt P08581 25-928) (assay: ELISA, soluble scFv).
T1 construct: MET ectodomain, residues 1-24 are the leader; produced in Lec 8 cells; background text says the ectodomain is furin-cleaved into alpha (25-307) and beta chains; biotinylated form used in selections; also called MET928 extracellular domain; Met extracellular domain
T1 sequence (P08581 25-928): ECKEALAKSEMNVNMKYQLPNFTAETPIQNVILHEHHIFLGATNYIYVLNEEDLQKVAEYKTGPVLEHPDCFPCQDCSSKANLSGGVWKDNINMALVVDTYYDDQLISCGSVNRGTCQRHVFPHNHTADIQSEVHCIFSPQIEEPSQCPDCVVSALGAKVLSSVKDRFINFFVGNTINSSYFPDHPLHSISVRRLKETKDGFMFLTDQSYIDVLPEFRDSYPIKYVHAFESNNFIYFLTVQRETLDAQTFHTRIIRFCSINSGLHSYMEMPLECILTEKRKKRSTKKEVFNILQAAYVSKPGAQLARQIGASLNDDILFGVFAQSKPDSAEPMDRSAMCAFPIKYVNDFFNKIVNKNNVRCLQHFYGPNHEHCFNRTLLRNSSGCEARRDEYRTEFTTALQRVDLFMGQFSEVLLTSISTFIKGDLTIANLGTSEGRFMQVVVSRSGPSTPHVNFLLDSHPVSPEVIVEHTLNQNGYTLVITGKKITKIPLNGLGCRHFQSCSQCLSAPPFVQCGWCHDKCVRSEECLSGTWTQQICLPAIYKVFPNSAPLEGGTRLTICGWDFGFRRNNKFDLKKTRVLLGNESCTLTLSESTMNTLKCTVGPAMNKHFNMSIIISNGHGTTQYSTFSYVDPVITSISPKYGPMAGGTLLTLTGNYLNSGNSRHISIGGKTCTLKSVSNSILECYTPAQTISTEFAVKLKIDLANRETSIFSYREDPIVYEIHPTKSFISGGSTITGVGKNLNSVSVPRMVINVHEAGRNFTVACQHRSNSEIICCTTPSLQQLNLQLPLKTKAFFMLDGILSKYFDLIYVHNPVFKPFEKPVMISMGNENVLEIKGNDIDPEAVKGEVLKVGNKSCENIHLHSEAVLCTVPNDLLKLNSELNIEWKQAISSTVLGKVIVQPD
B1: binds. B2: binds. B3: binds. B4: binds. B5: binds. B6: binds. B7: binds. B8: binds. B9: binds. B10: binds. B11: binds. B12: binds. B13: binds. B14: binds. B15: binds. B16: binds. B17: binds. B18: binds. B19: binds. B20: binds.
